# Data taken from patent US20120045819A1 (published 2012).
# Positions of bridges follow the written chain, without caps; N, C: chain ends. No end group written: not given here. *: point of attachment. NHNH2 = NN*
# T1: native human factor VIII (nhfVIII) (human, UniProt P00451 20-2351)
# T1 chain 1: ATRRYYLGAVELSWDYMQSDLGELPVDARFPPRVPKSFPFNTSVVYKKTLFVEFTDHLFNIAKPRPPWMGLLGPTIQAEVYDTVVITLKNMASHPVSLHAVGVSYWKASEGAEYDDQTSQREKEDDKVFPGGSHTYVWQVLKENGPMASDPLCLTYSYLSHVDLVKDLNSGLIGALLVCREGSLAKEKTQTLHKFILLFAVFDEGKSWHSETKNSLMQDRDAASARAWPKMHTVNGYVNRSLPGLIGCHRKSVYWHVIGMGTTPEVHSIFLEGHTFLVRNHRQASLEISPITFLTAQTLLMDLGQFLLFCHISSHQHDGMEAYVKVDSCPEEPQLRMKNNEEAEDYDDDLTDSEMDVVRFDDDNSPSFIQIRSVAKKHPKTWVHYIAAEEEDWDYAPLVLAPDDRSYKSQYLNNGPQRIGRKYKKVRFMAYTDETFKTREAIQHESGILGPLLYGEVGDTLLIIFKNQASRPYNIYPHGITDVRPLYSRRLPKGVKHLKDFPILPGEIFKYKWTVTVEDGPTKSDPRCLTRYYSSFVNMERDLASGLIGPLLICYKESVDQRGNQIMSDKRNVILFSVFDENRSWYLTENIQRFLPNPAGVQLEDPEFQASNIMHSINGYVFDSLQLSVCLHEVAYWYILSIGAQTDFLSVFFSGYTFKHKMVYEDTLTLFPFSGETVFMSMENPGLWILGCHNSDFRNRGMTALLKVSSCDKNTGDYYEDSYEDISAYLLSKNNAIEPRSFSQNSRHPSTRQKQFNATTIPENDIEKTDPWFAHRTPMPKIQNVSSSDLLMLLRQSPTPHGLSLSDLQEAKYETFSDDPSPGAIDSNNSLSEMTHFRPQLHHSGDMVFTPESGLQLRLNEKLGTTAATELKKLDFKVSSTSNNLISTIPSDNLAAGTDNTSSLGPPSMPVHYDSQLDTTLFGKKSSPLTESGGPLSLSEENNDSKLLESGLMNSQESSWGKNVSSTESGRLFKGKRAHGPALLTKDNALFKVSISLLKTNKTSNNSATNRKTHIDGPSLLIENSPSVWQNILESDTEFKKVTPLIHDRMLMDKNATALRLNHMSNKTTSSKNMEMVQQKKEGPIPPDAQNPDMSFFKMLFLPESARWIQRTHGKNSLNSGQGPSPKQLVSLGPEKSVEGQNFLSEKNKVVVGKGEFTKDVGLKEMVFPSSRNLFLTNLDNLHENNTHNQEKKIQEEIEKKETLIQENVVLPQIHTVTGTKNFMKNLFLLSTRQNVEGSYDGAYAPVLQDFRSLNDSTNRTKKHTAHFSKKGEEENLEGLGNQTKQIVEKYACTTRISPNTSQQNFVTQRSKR
# T1 chain 2: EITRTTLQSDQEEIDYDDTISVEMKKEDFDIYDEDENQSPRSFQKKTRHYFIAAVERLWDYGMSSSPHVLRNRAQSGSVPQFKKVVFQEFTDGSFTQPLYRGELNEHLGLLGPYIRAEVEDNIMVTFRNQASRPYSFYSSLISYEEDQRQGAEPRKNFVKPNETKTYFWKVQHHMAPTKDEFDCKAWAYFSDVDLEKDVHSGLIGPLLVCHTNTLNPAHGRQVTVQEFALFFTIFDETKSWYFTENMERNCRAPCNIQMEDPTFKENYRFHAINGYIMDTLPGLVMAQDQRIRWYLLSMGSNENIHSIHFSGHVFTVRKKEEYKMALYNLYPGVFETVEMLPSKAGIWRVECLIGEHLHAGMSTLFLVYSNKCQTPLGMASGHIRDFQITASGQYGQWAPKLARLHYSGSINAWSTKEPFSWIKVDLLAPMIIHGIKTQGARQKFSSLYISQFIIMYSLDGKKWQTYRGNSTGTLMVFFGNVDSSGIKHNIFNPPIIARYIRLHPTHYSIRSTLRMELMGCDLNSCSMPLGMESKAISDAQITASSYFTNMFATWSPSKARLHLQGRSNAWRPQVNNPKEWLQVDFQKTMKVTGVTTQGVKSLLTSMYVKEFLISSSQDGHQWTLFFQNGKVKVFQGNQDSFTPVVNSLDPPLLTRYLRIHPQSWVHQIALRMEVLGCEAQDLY
# Biological target: T1, native human factor VIII (nhfVIII)
# Test: batch binding to peptide beads; fractions by sandwich ELISA; % of total recovered
Binder,% of total recovered in Eluate [%],% of total recovered in Unbound [%],% of total recovered in Wash [%]
"AEGTGDHLCGAWFRPCDADPGPEGGGS-NHNH2 (disulfide 9-16, synthetic peptide immobilized on Toyopearl Formyl 650-M resin by hydrazone bond) [CS-454 (AEGTGDHLCGAWFRPCDADPGPEGGGS-NHNH2)]",21,67,12
"AEGTGDFGCSWLFPCPFDPGPEGGGS-NHNH2 (disulfide 9-15, synthetic peptide immobilized on Toyopearl Formyl 650-M resin by hydrazone bond) [CS-456 (AEGTGDFGCSWLFPCPFDPGPEGGGS-NHNH2)]",16,70,14
"AEGTGDFCWVFAFDHCHDPGPEGGGS-NHNH2 (disulfide 8-16, synthetic peptide immobilized on Toyopearl Formyl 650-M resin by hydrazone bond) [CS-458 (AEGTGDFCWVFAFDHCHDPGPEGGGS-NHNH2)]",39,48,13
